Our source for the protein stability index values is the supplement of paper PMC10567573.

Sequences and labels used below:
B1: GAGE1 (parent)
chain: QPPEMIGPMRPEQFSDEVEPATPE
B2: KLHL14 (parent)
chain: YVIGGRNETGYLSSVECYNLETNE
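Also: lentivirally expressed fusions sorted by FACS into six bins by GFP to DsRed ratio, PSI derived from sequencing read proportions per bin multiplied by bin number.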

The first series covers variants of B1. As to the kind of experiment: protein stability index of a GFP-peptide fusion (GPS, HEK-293T) (PSI 1-6); higher = more stable. The note with it: c terminus: a fixed tail appended.
As for QPPEMIGPMRPEQFSDEVEPATPT [E24T], the protein stability index was determined as 4.98.
Take QPPEMIGPMRPEQFSDEVEPATPW [E24W]: the protein stability index turned out to be 4.16.
For QPPEMIGPMRPEQFSDEVEPATPV [E24V], the protein stability index was determined as 4.45.
Turning to QPPEMIGPMRPEQFSDEVEPATPS [E24S], the protein stability index stood at 4.65.
Take QPPEMIGPMRPEQFSDEVEPATPQ [E24Q]: the protein stability index came to 4.61.
Consider QPPEMIGPMRPEQFSDEVEPATPR [E24R], for which the protein stability index is 4.27.
For QPPEMIGPMRPEQFSDEVEPATPY [E24Y], the protein stability index came out at 4.57.
With QPPEMIGPMRPEQFSDEVEPATPP [E24P], the protein stability index was 4.65.

The next series covers variants of B2. Described as above. The conditions noted are these: c terminus: a fixed tail appended.
For YVIGTRNETGYLSSVECYNLETNE [G5T], the protein stability index was determined as 2.33.
Consider YVIGPRNETGYLSSVECYNLETNE [G5P], for which the protein stability index is 1.89.
Regarding YVIGSRNETGYLSSVECYNLETNE [G5S], the protein stability index came out at 2.31.
Turning to YVIGWRNETGYLSSVECYNLETNE [G5W], the protein stability index is 2.92.
Still for that read-out and setting: the value for YVIGHRNETGYLSSVECYNLETNE [G5H] was 1.74.
Turning to YVIGLRNETGYLSSVECYNLETNE [G5L], the protein stability index was 2.82.
The same measure, in the same setting: the value for YVIGCRNETGYLSSVECYNLETNE [G5C] was 1.93.
Regarding YVIGQRNETGYLSSVECYNLETNE [G5Q], the protein stability index was 2.1.
As for YVIGKRNETGYLSSVECYNLETNE [G5K], the protein stability index came out at 1.76.
As for YVIGVRNETGYLSSVECYNLETNE [G5V], the protein stability index turned out to be 1.49.
For the variant YVIGNRNETGYLSSVECYNLETNE [G5N], the protein stability index is 1.92.
For YVIGARNETGYLSSVECYNLETNE [G5A], the protein stability index came to 1.71.
As for YVIGERNETGYLSSVECYNLETNE [G5E], the protein stability index was 3.15.
YVIGMRNETGYLSSVECYNLETNE [G5M]: the protein stability index came to 1.69.
As for YVIGRRNETGYLSSVECYNLETNE [G5R], the protein stability index came out at 1.71.
In the case of YVIGIRNETGYLSSVECYNLETNE [G5I], the protein stability index is 2.24.
As to YVIGDRNETGYLSSVECYNLETNE [G5D], the protein stability index was determined as 3.12.
In the case of YVIGYRNETGYLSSVECYNLETNE [G5Y], the protein stability index came out at 1.72.
For YVIGFRNETGYLSSVECYNLETNE [G5F], the protein stability index was found to be 2.41.
For the variant YVIGGRNEPGYLSSVECYNLETNE [T9P], the protein stability index was 1.9.
Same read-out and setting: the figure for YVIGGRNEAGYLSSVECYNLETNE [T9A] is 1.9; for YVIGGRNEVGYLSSVECYNLETNE [T9V] it is 2.07; for YVIGGRNESGYLSSVECYNLETNE [T9S] it is 1.93.
Take YVIGGRNEGGYLSSVECYNLETNE [T9G]: the protein stability index was determined as 1.69.
Regarding YVIGGRNEKGYLSSVECYNLETNE [T9K], the protein stability index came out at 2.13.
In the case of YVIGGRNEYGYLSSVECYNLETNE [T9Y], the protein stability index came out at 1.58.
As to YVIGGRNEWGYLSSVECYNLETNE [T9W], the protein stability index was determined as 1.78.
Consider YVIGGRNEQGYLSSVECYNLETNE [T9Q], for which the protein stability index turned out to be 2.
As for YVIGGRNEHGYLSSVECYNLETNE [T9H], the protein stability index was 1.6.
As for YVIGGRNENGYLSSVECYNLETNE [T9N], the protein stability index amounted to 1.83.
With YVIGGRNELGYLSSVECYNLETNE [T9L], the protein stability index came out at 1.69.
Still for that read-out and setting: the value for YVIGGRNEIGYLSSVECYNLETNE [T9I] was 1.49; that for YVIGGRNEMGYLSSVECYNLETNE [T9M] was 2.37; that for YVIGGRNERGYLSSVECYNLETNE [T9R] was 2.76.
As to YVIGGRNEEGYLSSVECYNLETNE [T9E], the protein stability index was 2.67.
For the variant YVIGGRNEFGYLSSVECYNLETNE [T9F], the protein stability index turned out to be 2.21.
Still for that read-out and setting: the value for YVIGGRNECGYLSSVECYNLETNE [T9C] was 1.73; that for YVIGGRNEDGYLSSVECYNLETNE [T9D] was 2.23.
As for YVIGGRNETAYLSSVECYNLETNE [G10A], the protein stability index was 1.88.
YVIGGRNETFYLSSVECYNLETNE [G10F]: the protein stability index is 2.81.
With YVIGGRNETMYLSSVECYNLETNE [G10M], the protein stability index stood at 1.68.
Regarding YVIGGRNETLYLSSVECYNLETNE [G10L], the protein stability index worked out at 2.62.
For YVIGGRNETHYLSSVECYNLETNE [G10H], the protein stability index worked out at 1.45.
The same measure, in the same setting: the value for YVIGGRNETEYLSSVECYNLETNE [G10E] was 3.13.
For YVIGGRNETIYLSSVECYNLETNE [G10I], the protein stability index was determined as 1.25.
As to YVIGGRNETCYLSSVECYNLETNE [G10C], the protein stability index is 2.58.
On to YVIGGRNETDYLSSVECYNLETNE [G10D], for which the protein stability index came to 3.07.
Regarding YVIGGRNETKYLSSVECYNLETNE [G10K], the protein stability index worked out at 2.13.
With YVILGRNETGYLSSVECYNLETNE [G4L], the protein stability index turned out to be 1.47.
Regarding YVIQGRNETGYLSSVECYNLETNE [G4Q], the protein stability index stood at 2.55.
Consider YVIKGRNETGYLSSVECYNLETNE [G4K], for which the protein stability index is 2.34.
Consider YVISGRNETGYLSSVECYNLETNE [G4S], for which the protein stability index turned out to be 2.46.
Consider YVIVGRNETGYLSSVECYNLETNE [G4V], for which the protein stability index stood at 1.3.
Regarding YVIFGRNETGYLSSVECYNLETNE [G4F], the protein stability index is 1.31.
YVICGRNETGYLSSVECYNLETNE [G4C]: the protein stability index was 1.75.
Consider YVITGRNETGYLSSVECYNLETNE [G4T], for which the protein stability index worked out at 1.5.
Same read-out and setting: the value for YVIAGRNETGYLSSVECYNLETNE [G4A] was 1.77; that for YVIWGRNETGYLSSVECYNLETNE [G4W] was 2.32.
For the variant YVIMGRNETGYLSSVECYNLETNE [G4M], the protein stability index is 2.31.
For the variant YVIEGRNETGYLSSVECYNLETNE [G4E], the protein stability index was 2.11.
On to YVIPGRNETGYLSSVECYNLETNE [G4P], for which the protein stability index turned out to be 2.56.
On the same count and under the same terms, the figure for YVIIGRNETGYLSSVECYNLETNE [G4I] is 2.1; for YVINGRNETGYLSSVECYNLETNE [G4N] it is 1.89; for YVIRGRNETGYLSSVECYNLETNE [G4R] it is 1.71.
The same measure, in the same setting: the value for YVIYGRNETGYLSSVECYNLETNE [G4Y] was 2.42; that for YVIHGRNETGYLSSVECYNLETNE [G4H] was 2.4.
Take YVIDGRNETGYLSSVECYNLETNE [G4D]: the protein stability index was determined as 1.89.
YVIGGFNETGYLSSVECYNLETNE [R6F]: the protein stability index worked out at 1.5.
As for YVIGGTNETGYLSSVECYNLETNE [R6T], the protein stability index is 2.52.
Consider YVIGGSNETGYLSSVECYNLETNE [R6S], for which the protein stability index was 2.35.
On to YVIGGDNETGYLSSVECYNLETNE [R6D], for which the protein stability index was found to be 2.57.
As for YVIGGWNETGYLSSVECYNLETNE [R6W], the protein stability index was found to be 1.96.
Regarding YVIGGKNETGYLSSVECYNLETNE [R6K], the protein stability index is 2.05.
With YVIGGINETGYLSSVECYNLETNE [R6I], the protein stability index amounted to 1.67.
Consider YVIGGLNETGYLSSVECYNLETNE [R6L], for which the protein stability index is 2.09.
Consider YVIGGGNETGYLSSVECYNLETNE [R6G], for which the protein stability index came out at 1.92.
As for YVIGGNNETGYLSSVECYNLETNE [R6N], the protein stability index is 2.2.
Turning to YVIGGHNETGYLSSVECYNLETNE [R6H], the protein stability index was 1.9.
Same read-out and setting: the value for YVIGGENETGYLSSVECYNLETNE [R6E] was 2.97.
Same read-out and setting: the figure for YVIGGPNETGYLSSVECYNLETNE [R6P] is 2.51; for YVIGGVNETGYLSSVECYNLETNE [R6V] it is 1.87; for YVIGGQNETGYLSSVECYNLETNE [R6Q] it is 2.77.
On to YVIGGANETGYLSSVECYNLETNE [R6A], for which the protein stability index turned out to be 2.93.
Regarding YVIGGCNETGYLSSVECYNLETNE [R6C], the protein stability index is 2.21.
As to YVIGGYNETGYLSSVECYNLETNE [R6Y], the protein stability index came out at 1.69.
The same measure, in the same setting: the figure for YVIGGMNETGYLSSVECYNLETNE [R6M] is 1.69.
